T1: full-length human KLB on HEK293/hKLB/SRE-luc cells (human, UniProt Q86Z14 1-1044)
T1 construct: amino acids 1-1044 of NP_783864.1
T1 sequence: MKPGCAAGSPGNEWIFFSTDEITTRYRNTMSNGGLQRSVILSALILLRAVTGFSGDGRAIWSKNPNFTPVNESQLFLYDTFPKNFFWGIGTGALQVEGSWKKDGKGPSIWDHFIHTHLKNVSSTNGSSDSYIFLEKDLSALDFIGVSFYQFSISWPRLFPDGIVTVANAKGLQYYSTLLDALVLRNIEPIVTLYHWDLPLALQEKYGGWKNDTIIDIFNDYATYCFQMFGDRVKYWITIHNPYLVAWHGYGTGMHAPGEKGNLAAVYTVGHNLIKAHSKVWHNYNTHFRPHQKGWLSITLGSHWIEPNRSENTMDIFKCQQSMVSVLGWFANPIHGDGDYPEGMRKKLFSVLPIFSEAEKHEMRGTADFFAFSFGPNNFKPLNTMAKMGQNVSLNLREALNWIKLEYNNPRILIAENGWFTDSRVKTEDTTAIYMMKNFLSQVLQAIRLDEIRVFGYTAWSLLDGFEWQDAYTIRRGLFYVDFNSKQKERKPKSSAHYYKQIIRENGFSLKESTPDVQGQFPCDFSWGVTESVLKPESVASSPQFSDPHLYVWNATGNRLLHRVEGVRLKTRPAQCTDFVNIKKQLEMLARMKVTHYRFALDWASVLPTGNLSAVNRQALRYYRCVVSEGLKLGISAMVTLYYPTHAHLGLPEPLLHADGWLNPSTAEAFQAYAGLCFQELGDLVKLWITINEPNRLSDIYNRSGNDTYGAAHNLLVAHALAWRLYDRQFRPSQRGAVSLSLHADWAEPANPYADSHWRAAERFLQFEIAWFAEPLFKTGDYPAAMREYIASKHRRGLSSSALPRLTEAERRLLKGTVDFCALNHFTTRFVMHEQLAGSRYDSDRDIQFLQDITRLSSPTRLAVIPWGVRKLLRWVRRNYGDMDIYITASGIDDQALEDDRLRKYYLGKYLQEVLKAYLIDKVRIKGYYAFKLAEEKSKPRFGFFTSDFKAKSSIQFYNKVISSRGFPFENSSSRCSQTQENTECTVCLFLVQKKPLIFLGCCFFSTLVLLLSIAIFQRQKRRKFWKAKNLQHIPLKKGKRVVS


Key:
Assay in all cases: FACS on stable HEK293 cells
[1] = target: T2, human KLB and human FGFR1c co-expressed on HEK293/hKLB/hFGFR1c/SRE-luc cells (human, UniProt Q86Z14 1-1044; P11362 22-822)
T2 construct: two receptors co-expressed on one cell line; also called KLB/FGFR1c coreceptor; FGF21R
Procedure: (§1) To determine binding specificity of the monoclonal anti-KLB/FGFR1c antibodies, the antibodies were tested in a fluorescence-activated cell sorting (FACS) binding assay to cell lines expressing human FGFR1c, human KLB, and both human FGFR1c and human KLB. HEK293 cell lines were generated that stably express full-length human FGFR1c (hFGFR1c; SEQ ID NO:433) or full-length human KLB (hKLB; SEQ ID NO:434) or both human FGFR1c and human KLB, along with a luciferase reporter [SRE (serum response element)-luciferase, SA Bioscience, #CLS-010L]. The resulting cell lines, referred to as HEK293/hFGFR1c/SRE-luc, HEK293/hKLB/SRE-luc, and HEK293/hKLB/hFGFR1c/SRE-luc, respectively, were maintained in DMEM supplemented with 10% FBS, NEAA, penicillin/streptomycin, 1 μg/mL puromycin and […] hygromycin B, 1 μg/mL puromycin and 500 μg/mL G418, or all three antibiotics.
(§2) For the FACS analysis, HEK293 parental, HEK293/hFGFR1c/SRE-luc, HEK293/hKLB/SRE-luc, and HEK293/hKLB/hFGFR1c/SRE-luc cells were dissociated and plated onto 96-well v-bottom plates at 5 x 10⁵ cells/well in PBS containing 1% FBS. […] Cells were filtered and subsequently analyzed on a Hypercyte Flow Cytometer (Intellicyt Corp.). Unstained and secondary antibody alone controls were also tested for binding to all cell lines. The results were analyzed using FlowJo version 9.52 software and geometric mean (Geom. Mean) of fluorescence for viable cells was determined. Geom. mean of fluorescence for each antibody was then normalized to Geom. mean of unstained cells to obtain relative binding of antibody (binding ratios) per each cell type.

[2] = target: T3, full-length human FGFR1c on HEK293/hFGFR1c/SRE-luc cells (human, UniProt P11362 22-822)
T3 construct: amino acids 1-733 of NP_075593
Procedure: as §1, §2

[3] = target: T1, full-length human KLB on …
Procedure: as §1, §2

T3 sequence (P11362 other isoform, or with tags, fused parts or gaps limits assumed): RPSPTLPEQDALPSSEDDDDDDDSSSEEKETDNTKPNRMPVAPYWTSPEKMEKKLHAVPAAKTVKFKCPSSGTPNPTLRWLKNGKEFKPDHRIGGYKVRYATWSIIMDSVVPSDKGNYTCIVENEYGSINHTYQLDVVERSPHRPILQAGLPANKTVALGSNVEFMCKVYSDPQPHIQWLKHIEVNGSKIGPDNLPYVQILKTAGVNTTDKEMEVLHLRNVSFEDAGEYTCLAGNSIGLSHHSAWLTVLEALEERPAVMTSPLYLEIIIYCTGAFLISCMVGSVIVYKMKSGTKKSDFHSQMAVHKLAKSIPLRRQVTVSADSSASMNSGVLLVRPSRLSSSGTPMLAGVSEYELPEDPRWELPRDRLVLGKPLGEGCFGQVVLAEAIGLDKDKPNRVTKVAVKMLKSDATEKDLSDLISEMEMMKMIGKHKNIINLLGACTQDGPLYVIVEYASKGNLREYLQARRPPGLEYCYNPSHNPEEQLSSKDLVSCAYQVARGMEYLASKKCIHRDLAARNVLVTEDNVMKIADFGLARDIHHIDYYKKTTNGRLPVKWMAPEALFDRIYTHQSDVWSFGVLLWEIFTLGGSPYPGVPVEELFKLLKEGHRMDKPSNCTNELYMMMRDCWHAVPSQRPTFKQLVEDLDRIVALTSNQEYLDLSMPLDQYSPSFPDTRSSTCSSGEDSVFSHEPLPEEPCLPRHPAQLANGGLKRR

| Binder | binding ratio to unstained cells [1] [fold] | binding ratio to unstained cells [2] [fold] | binding ratio to unstained cells [3] [fold] |
| --- | --- | --- | --- |
| H2aM8109N (antibody, V domains shown, mouse IgG2 Fc (H2aM prefix)) VH: QVQVVESGGGVVQPGRSLRLSCAASGFTFSSYGLHWVRQAPGKGLEWVAVIWHDGSHKYYADSVKGRFTISRDNSKNTLYLQMNSLRAEDTAVYYCARDGIPVAEDYYFYGMDVWGQGTTVTVSS VL: DIQMTQSPSSLSASVGDRVTITCRASQGIRNDLGWYQQKPGKAPKRLIYAASSLQSGVPSRFSGSGSGTEFTLTISSLQPEDFAIYYCLQHNSLTFGGGTKVEIK | 58 | 7 | 21 |
| H4H8859P (antibody, V domains shown, human IgG4 Fc (H4H prefix)) VH: EVQLVESGGSVVRPGGSLRLSCAASGFTFDVYGMSWVRQAPGKGLEWVSGINWIGGSTGYADSVKGRFTISRDNAKNSLYLQMNSLRAEDTALYYCTREEDYWGQGTLVTVSS VL: DVVMTQSPLSLAVTLGQPASISCRSSQSLVYSDGNTYLNWFQQRPGQSPRRLFYKVSNRDSGVPDRFSGSGSGTDFTLKISRVEAEDVGIYYCMQGIKWPLTFGGGTKVEIK | 4 | 5 | 5 |
| H4H8852P (antibody, V domains shown, human IgG4 Fc (H4H prefix)) VH: QVQLQESGPGLVKPSETLSLTCTVSGGSISSYYWSWIRQPPGKGLEWIGYIYSSGIIKYNPSLKSRVTISADTSKNQFSLKLSSVTAADTAVYYCARHGIFGVMEYFQRWGQGTLVTVSS VL: DIQMTQSPSSLSASIGDRVTITCQASQDIGNFLNWYQQKPGKAPTLLIYDASNMETGVPSRFSGSGSGTYFTFTISSLQPEDVATYYCQQYDNLPLTFGGGTKVEIK | 33 | 1 | 7 |
| H1M8115N (antibody, V domains shown, H1M Fc prefix (mouse Fc)) VH: QVQLVQSGAEVKKPGSSVKVSCKASGGTFSTYEISWVRQAPGQGLEWMGGIIPVFGTTHYAQKFQDSVTITTDESTGTAFMELSSLKSEDTAVYYCARGGAGGDNWGQGTLVTVSS VL: not shown | 33 | 2 | 13 |
| H4H8837P (antibody, V domains shown, human IgG4 Fc (H4H prefix)) VH: QVQLVESGGGVVQPGRSLRLSCAASGFTFNSYAMHWVRQAPGMGLEWVAVISSDGSNKYYADSVRGRFTVSRDNSKNTLYLQMNSLRSEDTAVYYCAKDGRGYSSFSHFGMDVWGQGTTVTVSS VL: DIQMTQSPSTLSASVGDRVTITCRASQSIGSWLAWYQQKPGKAPKLLIYKTSSLESGVPSRFSGSGSGTEFTLTISSLQPDDFASYYCQQYNSYSFGQGTKVEIK | 33 | 2 | 13 |
| H4H8878P (antibody, V domains shown, human IgG4 Fc (H4H prefix)) VH: QVQLVESGGGVVQPGRSLRLSCAASGFTLNTYGMHWIRQTPGKGLEWVSLISYDETKEYYVDSVKGRFTISRDNSKNTLYLQMNSVRVEDTAVYYCAKPLTGSTDYYYGLDVWGQGTTVTVSS VL: DIQMTQSPSYVSASVGDRVIITCRASQDISSWLAWYQQKPGKAPKLLIYVTSSLESGVPSRFSGSGSGTDFTLTISGLQPEDFATYYCQQVKSFPPTFGPGTKVDIK | 35 | 2 | 11 |
| H2aM8093N (antibody, V domains shown, mouse IgG2 Fc (H2aM prefix)) VH: QVQLVQSGAEVKRPGSSVKVSCKASGDTFSTYAISWVRQAPGQGLEWMGGIIPVFGTTNYAQKFQDRVTITTDESTRTAYMELSSLRSEDTAVYYCAGIAGPDYWGQGTLVTVSS VL: DIQMTQSPSSLSASVGDRVTITCRASQGIRNYLAWFQQKPGKAPKSLIYLATSLQSGVPSKFSGSGSGTDFTLTISSLQPEDFATYYCQQYYSYPWTFGQGTKVEIK | 41 | 1 | 15 |

The next lines start with the values.

| binding ratio to unstained cells [1] [fold] | binding ratio to unstained cells [2] [fold] | binding ratio to unstained cells [3] [fold] | Binder |
| --- | --- | --- | --- |
| 35 | 2 | 15 | H4H8881P (antibody, V domains shown, human IgG4 Fc (H4H prefix)) VH: QVQLVQSGAEVKKPGASVKVSCKASGYTFTSYVIHWVRQAPGQRLEWMGWSNAANGDTKYSQEFQDRVTFTRDTSASTAYMELSSLRSEDMAVYYCARWNWNYGAFDIWGQGTMVTVSS VL: DIQMTQSPSSLSASVGDRVTITCQASQDINNYLHWYQQKSGKAPNLLIYDASILETGVPSRFSGSGSGTDFTFTISSLQPEDIATYYCQQYDNLPYTFGQGTKLEIK |
| 4 | 5 | 3 | H1H8899P (antibody, V domains shown) VH: EVQLVESGGGLVQPGGSLRLSCAASGFTFSSHWMSWVRQAPGKGLEWVANIKQDGSEKYYVDSVKGRFTISRDNAKNSLYLQISSLRAEDTAVYYCASNWNFLFDFWGQGTLVTVSS VL: not shown |
| 23 | 1 | 11 | H2aM8098N (antibody, V domains shown, mouse IgG2 Fc (H2aM prefix)) VH: QLQLQESGPGLVKPSETLSLTCTVSGGSISSSNYYWDWIRQTPEKGLEWIGSIHYSGTSYYNPSLKSRVTISVDTSKNQFSLKLRSVTAADAAVYYCARQTSVYWYFDIWGHGTLVTVST VL: EIVLTQSPGTLSLSPGEGATLSCRASQSVRNNYLAWYQQKPGQAPRLLIYGASSRAIGIPDRFSGSGSGTDFTLTISRLEPKDFVVYYCQQYGGSLFTFGPGTKVDIK |
| 33 | 1 | 7 | H4H8871P (antibody, V domains shown, human IgG4 Fc (H4H prefix)) VH: QVQLQESGPGLVKPSETLSLTCTVSGASISSYYWSWIRQPPGKGLEWIGYIYSSGIIKYNPSLKSRVTISADTSKNQFSLKLSSVTAADTAVYYCARHGIFGVMEYFQRWGQGTLVTVSS VL: DIQMTQSPSSLSASIGDRVTITCQASQDIGNFLNWYHQKPGKAPTLLIYDASNMETGVPSRFRGSGSGTYFTFIISSLQPEDVATYYCQQYDNLPLTFGGGTKVEIK |
| 30 | 1 | 5 | H4H8856P (antibody, V domains shown, human IgG4 Fc (H4H prefix)) VH: QVQLQESGPGLVKPSETLSLTCTVSGGSISSYYWSWIRQPPGKGLEWIAYIYYSGITKYNPSLKSRVTISADTSKNQFSLKLSSVTAADTAVYYCARHGIFGVMEYFQRWGQGTLVTVSS VL: DIQMTQSPSSLSASIGDRVTITCQASQDISNFLNWYQQKPGKAPTLLIYDVSNMETGVPSRFSGSGYGTDFTLTISSLKPEDIATYYCQQYDNIPLTFGGGTKVEIK |
| 7 | 6 | 2 | H2aM8832N (antibody, V domains shown, mouse IgG2 Fc (H2aM prefix)) VH: QVQLVESGGGVVQPGRSLRLSCAASGFTFSRYGMHWVRQAPGKGLEWVAVIWYDGTNKYYEDSLKGRFTISRDNSKNTLYLQMNSLRAEDSAVYYCARDQGKYIDYWGQGTLVTVSS VL: AIQMTQSPSSLSASVGDRVTITCRTSQDIRNDLGWYQQKPGKVPNLLIYAASTLQSGVPSRFSGSGSGTDFTLTISSLQPEDFATYYCLQDYNYPFTFGPGTKVDIK |

— patent publication US20170174769A1 (Regeneron, published 2017)
